{"source": "the DeepSol protein solubility set", "data": [{"assay": "soluble on expression in E. coli; label from the status in PepcDB or PDB records", "values": [{"sequence": "MLKCAVDEAAGGRAQAFVSSGDNIGGSPFQSSILGDEPTLEALNQMGLDYSAVGNHEFDKGYADLSSRVADLADFDYLGANVEGENPDLAPYGISHLDGVKVAFVGTVSQETPMLVNSEGIEGITFTDPLEATNRVADELVGSGAADVVVALYHEGITGTEAWSENIDVVFAGHTH", "soluble on expression in E. coli": "not soluble"}, {"sequence": "MRGSHHHHHHGMASMTGGQQMGRDLYDDDDKDHPFMAQRTEESKGKLSFATQGGQGEGSYSKSNSAASKTLSACIVPSLEEFLLHHFSPPQGAGPIYYADFGCAVGANTIGLAKFVTETLKSRPEISERDFLCYFADLPTNDFNTLFNQFPPLASRDGGNGNVEERTWFAAGVPGNQFNRMFPRSSLHVAITTLTLHYLPEIPKSITDESSPTFNRGCISSHGASPAVAEVFADTSREGLRKFFQCRAEELASGGVLAFYFPSRPDRAHPERQMSEDSMQLALWKVETAWRELVAEGVMPEELLDTFNVPNCHPSKEEVEEVVDHETSCFHIQKLEYIHKHPFSPPNPELILKDAQSYAKWWTGILRGGLGGMLSAHMAPELTEALMERFSKHIEKDYLEKKPQFPMIMNICMGILIRK", "soluble on expression in E. coli": "soluble"}, {"sequence": "MSETIEIDELVFSVKRSTRRRTVGVTVERDKSLVAHLPQGVALDVATRLIASKLLWVHQKLAEHGETARDDVFRIPEFVDGEGFHLLGKHYRLKLVDVPKNVTGVPSVRFEGDRILLRREQAASGGKRIEEYYTRAAHPYLNETVQRWKRIVGVEPGRFVQVMDLGYRWGSCSEDGTLNFHWRTMQLPPRIIEYVVVHELVHIKVPNHSEKFWKMIGSVMPDYESRKAWLKQKGGEL", "soluble on expression in E. coli": "soluble"}, {"sequence": "MSLNDLLVGLLLPEKENTRYEQFDYPFFKKKVGELTRDEGIVKYANAEASATKQADQMQQMIEDKVDVIVLDAVDAHAIADGVQKAKDAGIPVIAYDRLAEGPIDAYISFDNELVGEVQGRSLIEALGGDPESSAKIVMMNGSSTDPNAKQFKAGALSELNGKVTIAQSFDTKDWKPENAEANMTEAIEKIGKKKIAGVYSANDGMAGGVIKALEDAGVTDLPPITGQDAELAAVQRIVTGEQYMSVYKSYPQEAENAAEMAVARVQGRDIQFDALARDKVDSPTHKGIPAQLVPVVALTKANIEETVVAEGHHHHHH", "soluble on expression in E. coli": "soluble"}, {"sequence": "MANADLDKQPDSVSSVLKVFGILQALGEEREIGITELSQRVMMSKSTVYRFLQTMKTLGYVAQEGESEKYSLTLKLFELGARALQNVDLIRSADIQMRELSRLTKETIHLGALDEDSIVYIHKIDSMYNLRMYSRIGRRNPLYSTAIGKVLLAWRDRDEVKQILEGVEYKRSTERTITSTEALLPVLDQVREQGYGEDNEEQEEGLRCIAVPVFDRFGVVIAGLSISFPTLRFSEERLQEYVAMLHTAARKISAQMGYHDYPF", "soluble on expression in E. coli": "soluble"}, {"sequence": "MKIVIAPDSFKESLSALEVAEAVERGFRTVFPEAEYVKVPMADGGEGTVRSLVDATGGRIVETEVTGPLGEPVRAFFGLLGDGKTAVIEMAAASGLHLVPRDRRNPLVTTTRGTGELILAALDAGATHLIIGIGGSATNDGGAGMVQALGGRLLDEDGCDIGPGGGALADLHAIDLSGLDPRLGGVRIDVACDVDNPLTGPNGASAIFGPQKGATPDMVAVLDRNLAHYADVIRRDLGKQVGDIPGAGAAGGLGAGLLAFLPAELKRGVEIVIETVQLAERVKDADLVITGEGRIDGQTVFGKTPIGVAKTAKQFGVPVIGIAGSLGDDSAVVLDHGIDALFTIVPGVVPLEKALEQAEHYVTQTARHIASVYRLGQMKGTSSS", "soluble on expression in E. coli": "not soluble"}, {"sequence": "MGSDKIHHHHHHMIYISKEINTPLYDQIYRQIQGDIISGNLSPGTLLPGIRTLAKTLGVARNTVDKAYTQLAVEGYIIPRKGAGFAVESIRDSKKSAELQPLSSGVSAHPGHEKAEKKLPYDFQYGSFPEEYFPKTAWKKHMLEVLALPHLSAQMTQYQDKQGNLSLRCELQNYLYQTRGVVCTEDQILIGCGLHYSLDTLCKLFAGHKRIAMEEPGYNGAKEVFQNNGFTIRHIPSTPYGLDLSQLKTLAVPIVYVTPSHQFPYGTVLPISKRRELLEWAAEENAYIIEDDYDSEYRYDANPIPSLQSIDGHDRVIYIGTFSKSLSPSLRINYMVLPKSLLPAYHQMFSTYSSPVTWLTQEVLASFLRSGDYTRHVRRMCAAYRKRHDVFVQQLSQHFGPNIVLHGQGAGLHFLVEFAEEVEAEGLIQMAEEAGVRVYPVTPFWSASEACPPNLLFAGYSLLNERQIQEGLRLLKEVWAPVLEIK", "soluble on expression in E. coli": "not soluble"}, {"sequence": "MIISAASDYRAAAQRTLPPFLFHYIDGGAYAEYTLRRNVEDLSQVALRQRVLKNMSDLSLETTLFNETLSMPVALAPVGLCGMYARRGEVQAAAAADAKGIPFTLSTVSVCPIEEVAPTIKRPMWFQLYVLRDRGFMRNALERAKAAGCSTLVFTVDMPTPGARYRDAHSGMSGPNAAMRRYWQAVMHPKWAWDVGLNGRPHDLGNISAYLGKPTGLEDYIGWLANNFDPSISWKDLEWIREFWDGPMVIKGILDPEDARDAVRFGADGIVVSNHGGRQLDGVLSSARALPAIADAVKGDIAILADSGIRNGLDVVRMIALGADTVLLGRAYLYALATAGKAGVANLLDLIEKEMKVAMTLTGAKSISEISGDSLVQELGKSLPAALAPMSKGDAA", "soluble on expression in E. coli": "not soluble"}, {"sequence": "MAHHHHHHMSVGKPITRDSSKQLWRHIKSSGEEELTYTHNPYDDSPNRRKEREKSLNVCRHYAEGRCNRGSTCRFHHETRHNIIVTPHVTPKFSSIAPLKGLPTSPLGAYLSSPPNRSCNGCLLSPTHHNNSMSYNSSTNSSMKILSESSSTIPHLQLPESLSTHCRSSTYVASGMNGEQPPHDVLILSSSLGSLNVGDHVSRNNGGFLLTAQQR", "soluble on expression in E. coli": "not soluble"}, {"sequence": "MSLINRFSVPLLETSTIDLANVASNKIEPETVLTNARILSTYSDRILKDKELWIFKGRIACIKPSGSYKEFFQMDKSKIYEVNNNILAPGLIDPHMHIESSMMTGCAYAEAALLNGTTTIFCDSHEIGNVCDTDGIEWMLQDCRESPISIFLTLPSTIPATNKYLETAGGDLTDKKTAILFDKWPEIKGLGEKMDFVSVCEGNERSHSIISETLKRNLPVSGHVFGREFVAAYAASGITDTHEAEDKLFTNDLLDAGLWIFLRGGNPKTPWNSIKEAIKVITESEASTKRICVCTDDRDADDLFNFGLDWVVRQANTLGINNTTAWSMGSLHPATRFNIDRDYGALGHSRRADIVMINDNLEVLNTWLGGHLAVENKKITSLIDKQLSENRYQYPKRAYNTVILPKKINFIPDMPKESEFKINVIKTELPGIMTFKETIHIKEGHHHHHH", "soluble on expression in E. coli": "soluble"}, {"sequence": "SKKTVEFVDYVNPLMGTESTFAFSHGNTYPAVAVPWGMNFWSPQTGENGSGWMYTYTDSLMRGFRQTHQPSPWINDYGTFSIMPLAGELKMSHKERLVPFSHQQEKATPYNYSVTFNNGLQTSLSATSRGAVFEVSFPEKEDQYVVVDAYNGGSSITIEPEKRLVKGATRYNNGGVPDNFANYFMMEFSHPVIEYGTYNGDTLLHHQTDVAADYTCAYLKFDVPAGEKLTIRTASSFISPEQAAINFNREVADADVQLISGKAREQWNNYLGRVEAEGGTDEQLRTFYSCLYRTLLFPREFYEFDSQGNPVYYSPYDGNVHDGYMYTDNGFWDTFRAVHPLFTLLYPEVSERVTQSIINAYNESGFMPEWASPGHRGCMIGNNSVSLLVDAWMKGIQTVDAEKALEAMIHQTQARHAEIASVGRDGFEYYDKLGYVPYPEVPEATAKTLEYAYADWCIARFAESLGKQDIADQYYQKAPNYRNLYYPEHGFMWTKDAKGNWRDRFDATEWGGPFTEGSSWHWTWSVFHDPEGLSELMGGHEPMIARLDSMFVAPNTYNYGTYGFVIHEIAEMVALNMGQYAHGNQPVQHAIYLYDYIGQPWKTQYHLRNVMDKLYNSGSKGYCGDEDNGQTSAWYVFSAMGFYPVCPGMPEYAIGSPLFKKVTLHLPEGKNFVVSAADNAADRPYIRKALLNGQEFTRNYLTHDELKQGGELNLSMDSVPNQQRGTQPADFPYSYSK", "soluble on expression in E. coli": "soluble"}, {"sequence": "MGSDKIHHHHHHMTEYKKILVVINPTVDHQAALARAVELATKSNASITAFLSIYDFSYEMTSILSSHEREAMRQGVIDQRSAWLDTAIAPFNSAGVAIDSKVIWHNRPFESVINCALEGQYDLIVKSTHEHDKLKAVIFTPTDWHLMRKAPMPVLMVKEHDWPVAGKILCALNVASEDSEHQTLNGKIIEHAKDLATKFSADVHLVNGYPGTPVNLAIELPDFDAHAYNNNIRMQHQSRVECLAQAYDIPLDRCHVEEGLPEDVIPEVADRIDAELVILGTVGRTGFSAALIGNTAEHVIDSIRCDLLAIKPEGYVSPLAE", "soluble on expression in E. coli": "not soluble"}, {"sequence": "MALAPAAGCLFDDDNSFTYDVTWYCGMDECTRTEEVQRYDRARQDYSTLTITSSVDDTLFTDGIIAVSNEVPREDCRLVHGLNFLGQDIEPARFCYTPDGFELRVTIPGDGDENSTTWLLRTN", "soluble on expression in E. coli": "not soluble"}, {"sequence": "MAHHHHHHMNNTNIVTFSPKLKYSINDVVHRDREVKEYHLQIDREASDILFFCTIKPKQVSELLEGEVKINLKREVGEQYSVASEDGTHVCDFSKGNLNISPSAGFNYKHDRSVSCIYLVIPNKLFLIKLPKLNIVTEQFLPNLVSCLSEYSFINFNLKHVEESDDSISLHLSFGDFKKNFNVSCAFDLSEYAVEPCSLGKKGIVTFYFNA", "soluble on expression in E. coli": "not soluble"}, {"sequence": "DITGIATGYRDLDHMTTGLHEEELIILAARPAVGKTAFALNIAQNIGTKLDKTVAIFSLEMGAESLVDRMLAAEGLVESHSIRTGQLTDEEWQKYTIAQGNLANASIYIDDTPGIRITEIRSRSRKLAQETGNLGLILIDYLQLITGTGRENRQQEVSEISRQLKILAKELKVPVIALSQLSRGVEQRQDKRPVLSDI", "soluble on expression in E. coli": "not soluble"}, {"sequence": "MSLKIFEFVPPTDKEIEEAQLKLGFKFSPEYIEFIKSGYDLGDAPIEALEISNPPSHADIFETLANARKYFQMPSEMCPICEDNSDYYCLNQKGEVVFWSHNGTTSEKWANVTVWRNQMATEVEGHHHHHH", "soluble on expression in E. coli": "soluble"}, {"sequence": "MSSPKISIIIPVYMAESYLHRCVDSIITQTFTDWELLLVDDGSPDHSGELCEKYASAYKSRIKAFHKPNGGVASAREFGMQQARGEYSIHVDPDDWIDSNTLEELYQQAVKEQADMVICDFMMEYPNRQIHNCQKPQLLDSSSFMHQLLQQERHGSLCNKLIRTELYHKYQLHFPEKMICWEDLYICCSILLHGCKLAYVPHALYHYDFYTNDNSMVRHTDMRGLQAQIDFCRLMQAKISPEYLPELNELKGITLITAFRNQLLNEQAIRSLFPEINDWYVTRYGHDYEKSNYYGLTLVLRGYNFKTARRRMFVAKFLVQIKNKITRML", "soluble on expression in E. coli": "not soluble"}, {"sequence": "MGIYQWRDKKKPSGGKRRYYYKVKRKYAAGRPPTYTTLSAAEEEERKPVRARGGSYKIKAKKVAFAVVSNPKTGEARKARILRIVETPAHREYARRGIIVKGAVIDTTLGRAVVTSRPGQEGVVNAVLLEEQGQKQLEHHHHHH", "soluble on expression in E. coli": "soluble"}, {"sequence": "PCFALTSPEAGSDAGSIPDYGVVCKGEWEGKEVLGMRLTWNKRYITLAPVATVLGLAFKLRDPEGLLGDKEDLGITCALIPTDVKGVEIGNRHFPLNVPFQNGPTRGKDIFVPIDFIIGG", "soluble on expression in E. coli": "not soluble"}, {"sequence": "MPSMSPIDKSWSTCPYGFLDGTHQELRRIFHLWRCKKYRSQFTEEKKATYEEKLAASELFKDKKALYPSSVSQPFKGDYVEITKNPKYQKLNSLVEDKVLLADVVSKINRANGKGTPRIFLLTKKCLVLADQKTGQVKASVPLPDLSSVFVSTQNDGFFALKLREGATSAAKGDYLLSSDRLIEIITKLYCTGAASAERNQIKIDISDEFLVQFKQDKVCVKFIQGTPKNSNSVSCKRKNNRLLEVSVPSP", "soluble on expression in E. coli": "soluble"}, {"sequence": "MTNLTNYHSHCLYCDGRANMEDFIRFAISEGFSSYGISSHAPLPFSTAWTMEWDRMDDYLSEFARLKEKYADKIELAIGLEIDYLNEESHPAIPRFQELPLDYRIGSVHMLYSPQGKVVDIDTPADIFRQLIDAHFEGDLDYVVHLYYKNLLRMVELGGFDILGHADKMHYNASCYRPGLLDEPWYDALVRDYFAEIARHGYIVEINTKSYHDLGTFYPNERYFPLLKELGIRVQVNSDAHYPERINNSRAEALAALKKVGFDTVVEWHGGQWKDMPLLQLEHHHHHH", "soluble on expression in E. coli": "soluble"}]}]}
